Test results from the supplement of paper PMC7125110.
± gives the standard error. This sample holds only a part of the variants without activity.

B1: glmS ribozyme (parent)
chain: AUAAAAGCGCCAGAACUACAGAAAUGUAGUUGACGAGGAGGAGGUUUAUCGAAUUUUCGGCGGAUGCCUCCAAA

Tests used:
Conditions in all cases: with glucosamine-6-phosphate
glucosamine-6-phosphate [1] = variants of: B1; assay: self-cleavage kobs at 160 uM GlcN6P; higher = faster cleavage; RNA array
Summary of the method: (§1)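 kobs was derived by fitting per-tile medians to one- or two-exponential decays after normalising signals to baseline and to non-cleaving reference variants. Those signals came from barcoded ribozyme variants transcribed in situ by E. coli RNA polymerase on sequenced MiSeq chips, followed through a hybridised Cy3 probe at 37 °C and imaged over ~14 h. Glucosamine-6-phosphate (40 μM to 10 mM) in HEPES/KCl/Mg(OAc)2 buffer was flowed in. Weighted Michaelis–Menten fits across concentrations then gave kcat and KM.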

glucosamine-6-phosphate [2] = variants of: B1; assay: self-cleavage kobs at 640 uM GlcN6P; higher = faster cleavage; RNA array
Summary of the method: as §1

glucosamine-6-phosphate [3] = variants of: B1; assay: self-cleavage kobs at 2500 uM GlcN6P; higher = faster cleavage; RNA array
Summary of the method: as §1

glucosamine-6-phosphate [4] = variants of: B1; assay: self-cleavage kobs at 10000 uM GlcN6P; higher = faster cleavage; RNA array
Summary of the method: as §1

Row | Variant | self-cleavage kobs at 160 uM GlcN6P (glucosamine-6-phosphate [1]) [s⁻¹] | self-cleavage kobs at 640 uM GlcN6P (glucosamine-6-phosphate [2]) [s⁻¹] | self-cleavage kobs at 2500 uM GlcN6P (glucosamine-6-phosphate [3]) [s⁻¹] | self-cleavage kobs at 10000 uM GlcN6P (glucosamine-6-phosphate [4]) [s⁻¹]
1 | C10G A53C | < 1e-05 | < 1e-05 | < 1e-05 | < 1e-05
2 | G32U G44U U47G A64C | < 1e-05 | – | < 1e-05 | –
3 | G41A G59U C71U | < 1e-05 | < 1e-05 | < 1e-05 | –
4 | A33U U69G | 5e-05 ± 2e-05 | 0.000237 ± 6.3e-05 | – | –
5 | G7A U57A | < 1e-05 | < 1e-05 | < 1e-05 | < 1e-05
6 | G35C G62U C67G C70U | < 1e-05 | – | – | –
7 | C16G G62C | < 1e-05 | < 1e-05 | < 1e-05 | –
8 | A33C G62A G63A | < 1e-05 | – | < 1e-05 | –
9 | A12C G37A A52G | < 1e-05 | – | 5.63e-05 ± 1.7e-05 | –
10 | G26U A52G | 9.82e-05 ± 2.9e-05 | – | 0.000726 ± 0.00017 | –
11 | G43A A48C | < 1e-05 | < 1e-05 | – | < 1e-05
12 | C8G G38A A48U C61U | < 1e-05 | – | – | –
13 | G37A G43C | < 1e-05 | – | < 1e-05 | –
14 | U30A G32A A39G | 6.92e-05 ± 2.4e-05 | 0.000602 ± 0.00013 | 0.000618 ± 0.0002 | 0.00306 ± 0.00073
15 | A6G A14C A42G U49G | < 1e-05 | – | – | –
16 | G9A C11G A12G A15U C16A U30C G32A A48G G59U G60U | < 1e-05 | – | < 1e-05 | –
17 | A6G G41A A42U A64U | < 1e-05 | – | < 1e-05 | –
18 | G29C G37C G41C | < 1e-05 | – | < 1e-05 | –
19 | A33G G44U | < 1e-05 | < 1e-05 | – | < 1e-05
20 | A42C U54C A64G C68A | < 1e-05 | < 1e-05 | < 1e-05 | < 1e-05
21 | G43C C61A | < 1e-05 | < 1e-05 | < 1e-05 | < 1e-05
22 | G51U U56C C70G | < 1e-05 | – | – | < 1e-05
23 | C11U A15G G44U G60U | < 1e-05 | < 1e-05 | < 1e-05 | –
24 | C11U U46A U54G | < 1e-05 | – | 4.93e-05 ± 1.7e-05 | –
25 | A33U G63U | < 1e-05 | < 1e-05 | < 1e-05 | < 1e-05

Row | Variant | self-cleavage kobs at 160 uM GlcN6P (glucosamine-6-phosphate [1]) [s⁻¹] | self-cleavage kobs at 640 uM GlcN6P (glucosamine-6-phosphate [2]) [s⁻¹] | self-cleavage kobs at 2500 uM GlcN6P (glucosamine-6-phosphate [3]) [s⁻¹] | self-cleavage kobs at 10000 uM GlcN6P (glucosamine-6-phosphate [4]) [s⁻¹]
26 | A6C C10A G35A C58G C70G | 4.89e-05 ± 2.3e-05 | 0.000553 ± 0.00014 | 0.000134 ± 4.9e-05 | –
27 | G13A A53C C67G | < 1e-05 | < 1e-05 | – | < 1e-05
28 | A15C G60C C61U | < 1e-05 | – | – | –
29 | G37U A42C C50U C68G | < 1e-05 | < 1e-05 | < 1e-05 | –
30 | C11U A33C A53U | < 1e-05 | < 1e-05 | – | –
31 | C8U G40U | < 1e-05 | – | < 1e-05 | < 1e-05
32 | A15C A33G G44A U47C G62A | < 1e-05 | – | – | –
33 | A52U U57A C68U | 8.55e-05 ± 2.1e-05 | 0.000196 ± 5.5e-05 | 0.000613 ± 0.00014 | –
34 | A36C A39U U57C | < 1e-05 | – | – | –
35 | C16G G44C C68U | < 1e-05 | – | < 1e-05 | –
36 | C16U C58A | 0.000528 ± 0.00025 | 0.000131 ± 2.7e-05 | 0.000305 ± 6.1e-05 | 0.00094 ± 0.00015
37 | A6U G35C | < 1e-05 | < 1e-05 | – | < 1e-05
38 | U54G C58G C67G | 0.000136 ± 3.4e-05 | 0.000215 ± 7.1e-05 | 8.44e-05 ± 3.2e-05 | –
39 | G7U A15G G32A | < 1e-05 | < 1e-05 | – | –
40 | G9U G62A | < 1e-05 | < 1e-05 | < 1e-05 | < 1e-05
41 | U30A G51A | < 1e-05 | – | – | –
42 | G29C U69G | 3.65e-05 ± 9.9e-06 | 9.83e-05 ± 1.7e-05 | 4.13e-05 ± 1.1e-05 | –
43 | G7A A33U G44U | < 1e-05 | – | < 1e-05 | –
44 | C10U C16U G38C | < 1e-05 | < 1e-05 | < 1e-05 | –
45 | G13C A33C G41U U56C | < 1e-05 | – | < 1e-05 | –
46 | G9C G29U C50G C70G | 0.000652 ± 0.00019 | 0.000131 ± 4.2e-05 | 0.000253 ± 9.9e-05 | –
47 | A12C U49A C50A | < 1e-05 | – | < 1e-05 | –
48 | A14U A15G U49A A53U | < 1e-05 | – | – | < 1e-05
49 | G37A A39C U47C C71U | < 1e-05 | – | 3.22e-05 ± 1.4e-05 | –
50 | C8U C10A G62A | < 1e-05 | < 1e-05 | – | –
